Where “and” joins values, the source holds several entries; their conditions need not be identical. Identical values can stand only once.
Key:
[1] = Isoelectric point by chromatofocusing (Mono P, pH 7.1 to 4.0); assay type: physicochemical
Protocol: Chromatofocusing is a method of separating isoforms of proteins according to their isoelectric point, pI, using an ion exchange column and a pH gradient created with amphoteric buffers of different pH. In this study, analysis of the TP10HD preparations was performed using a pH gradient of 7.1 to 4.0. The chromatographic resin was Mono P, Hr5/5 (Pharmacia Fine Chemicals, Piscataway, N.J.); the starting buffer was 0.025M Bis/Tris titrated to pH 7.1 with saturated iminodiacetic acid; the eluant was polybuffer 7-4 (Pharmacia Fine Chemicals, Piscataway, N.J.) diluted 1:10 (v/v) with water and adjusted to pH 4.0 with HCl; cleaning buffer was 2M NaCl in water. The experimental conditions were chosen to yield a linear pH gradient of 7.1 to 4.0 units.

[2] = system: complement-mediated lysis of antibody coated SRBC; assay: Inhibition of complement-mediated hemolysis of antibody-sensitized SRBC in vitro; assay type: cell-based, human; conditions: for IH50 (concentration giving 50% inhibition of hemolysis): SRBC, human serum as complement source; for antihemolytic potency comparison, in words: in vitro
Protocol: SRBC presensitized with rabbit anti-SRBC antibody (Diamedix, Miami, Fla.) were mixed in a V-bottom microtiter wells (Costar, Cambridge, Mass.) with an appropriate dilution of the test plasma and an aliquot of diluted human serum as a complement source. After incubation, 37° C., 1 hour, the unlysed red cells were pelleted by centrifugation, the supernatant transferred to corresponding flat bottom microwells (Costar, Cambridge, Mass.), and absorbance at 415 nm measured. Inhibition of complement-mediated lysis of the antibody coated SRBC was measured as a reduction in the absorbance in the presence of test sample.
A range of dilutions of TP10HD or TP10HD glycoform spanning 7.8 to 1000 ng/ml was examined for each sample.

[3] = Pharmacokinetic studies 1, 4, 5, 7, 9: iv clearance of 125I-labelled TP10HD preparations in rats; assay type: in vivo, Sprague-Dawley rats
Protocol: In Studies 1, 2, 4, 5, 7 and 9, Iodination was carried out by the chloramine-T procedure. Sodium phosphate buffer, 0.5M, pH 7.6, 50 μl, was added to 1 mCi of Na-^125 I (New England Nuclear, Boston, Mass.) as supplied. The sample of TP10HD, typically 100 μg in 100 μl (Study 5=69 μg; Study 7=34 μg; Study 9=91 μg), was added followed by 50 μl of a 15 mg/ml solution of freshly prepared chloramine-T. The reaction mixture was vigorously shaken for 60 seconds. Sodium metabisulfite (50 μl, 15 mg/ml) and sodium iodide (100 μl, 10 mg/ml) were successively pipetted into the reaction vial. The reaction mixture was passed onto a PD10 column (Pharmacia Fine Chemicals, Piscataway, N.J.), pre-equilibrated with phosphate buffered saline, pH 7.2-7.4, containing 0.1% bovine serum albumin (Sigma Chemical Company, St. Louis, Mo.). Ten 0.5 ml fractions were collected and 2 μl aliquots were counted directly and after combining with 100 μl of a 0.1% bovine serum albumin solution and 1 ml of 20% trichloroacetic acid. After incubation at 0° C. for 1 hour, the acid-precipitable protein associated radioactivity was collected by centrifugation for 10 minutes at 1000×g and quantitated by scintillation counting. Fractions containing >90% of the total radioactivity in the acid precipitate were pooled for further use.
Study 1: Radioiodinated TP10HD-CX was mixed with purified unlabeled TP10HD-CX to yield a dosing solution suitable for administering a 1 mg/kg total TP10HD dose containing 16-25×10^6 cpm of radiolabeled TP10HD-CX.
Study 4: Radioiodinated TP10HD-CC was mixed with purified unlabeled TP10HD-CC to yield a dosing solution suitable for administering a 1 mg/kg or a 3 mg/kg total TP10HD dose containing ~20×10^6 cpm.
Study 5: Radioiodinated TP10HD-CCW was mixed with purified unlabeled TP10HD-CCW to yield a dosing solution suitable for administering a 1 mg/kg total TP10HD dose containing ~20×10^6 cpm.
Study 7: Radiolabeled TP10HD-CCS was mixed with purified unlabeled TP10HD-CCS to yield a dosing solution suitable for administering a 1 mg/kg total TP10HD dose containing ~20×10^6 cpm.
Study 9: Radioiodinated TP10HD-CXD was mixed with purified unlabeled TP10HD-CXD to yield a dosing solution suitable for administering a 1 mg/kg total TP10HD dose containing ~20~10^6 cpm.
In Studies 1, 4, 5, 7 and 9, test material was injected intravenously (iv) into four Sprague-Dawley rats (2 male, 2 female). Blood samples were obtained from the retroorbital plexus at 1, 3, 5, 10, 20, 30, 45, and 60 minutes post injection, and the radioactivity determined. Additional post infusion blood samples were taken at 2, 3, and 4 hours postinjection (STUDY 4) and at 120 minutes (STUDY 5). The plasma fraction of the remaining blood sample was retained for further analysis.
Plasma samples were analyzed for residual test material by measuring:
(1) total residual radioactivity;
(2) percentage of radiolabeled material precipitated with TCA;
(3) residual acid precipitable radioactivity in the presence of SDS; and
(4) material immunologically identifiable in an enzyme immunoassay as TP10HD.
Radioisotope data was quantitated as total cpm/ml blood or plasma and as the percentage of a theoretical time zero value. Pharmacokinetic half-life was calculated from the radiometric data.
In Study 9, removal of N-linked oligosaccharide chains was performed by n-glycanase digestion, performed according to manufacturer's instructions (Genzyme Corporation, Boston, Mass.). Typically, 58 μg TP10HD-CX was incubated with 10.5 units of n-glycanase for 18 hours, 37° C., in 0.2M sodium phosphate, pH 8.6 buffer.
Precipitation with trichloroacetic acid was performed as follows: Plasma (20 μl) was precipitated by sequential addition of 450μl of 0.13M Tris HCl, 4% SDS, 10% glycerol, pH 6.8 buffer, followed by 30 μl of fetal bovine serum and 500μl of 20% trichloroacetic acid. […]

[4] = Pharmacokinetic study 3: iv TP10HD-CC in pigs, residual functional activity by hemolysis inhibition with pig complement; assay type: in vivo; conditions: 1 mg/kg
Protocol: Study 3: TP10HD-CC was administered as supplied to a final dose of 1 mg/kg.
In Study 3, test material was injected iv through a jugular vein cannula into piglets ranging in weight from 4.5 to 6.1 kg. Blood samples were taken via a previously implanted jugular vein cannula into syringes containing lithium heparin at a final concentration of 15 units/ml. A preinfusion sample, 10 ml, was taken at zero time and postinfusion samples, 1.0 ml, were taken at 5, 10, 15, 30, 45, 60, 120, 180, 240, 300, 360 minutes and 24 hours. Anticoagulated blood samples were centrifuged at ~3000 rpm, 4° C., 5 minutes and the platelet-poor plasma was aliquotted and stored at or below -70° C.
Plasma samples were analyzed for residual test material by an in vitro functional assay, as above, using pig rather than human complement. Pharmacokinetic half-life was calculated from the titer of the residual functional activity.
Prior to infusion with TP10HD-CC, plasma was collected from each pig to be used as a sample diluent and complement source for the hemolysis assay. Test samples were diluted a minimum of 1:50 with 0.1M Hepes, 0.15M NaCl, pH 7.4 buffer. For greater dilution, test samples were diluted with preinfusion plasma already diluted 1:50 in the same buffer, thereby maintaining the final plasma concentration at 1:50. At this dilution, the degree of hemolysis was equivalent to hemolysis with human complement, as described above. Other manipulations were as described above. Standard curves with known quantities of TP10HD can be used to calibrate the assay so that results can be expressed as μg/ml TP10HD remaining in the plasma versus time.
The pharmacokinetic parameters for clearance rate, compartment volume, rate constants and half-life were obtained by fitting the data for each pig to two and three compartment models. […] These phases represent 69% and 31% respectively of the given dose such that approximately one-third of the dose was cleared slowly.

[5] = Pharmacokinetic studies 6 and 8: iv TP10HD-CCW and TP10HD-CCS in rabbits, radiometric and immunoassay; assay type: in vivo, Dutch rabbits; conditions: 1 mg/kg
Protocol: In Studies 6 and 8, iodination was performed by the iodogen method (Fraker et al., 1978, Biochem Biophys Res Commun 80:849); the average degree of ^125 I substitution was 0.56 atoms/molecule of protein resulting in a specific activity of 22.7 kBq/mg for STUDY 6, and the average degrees of ^125 I substitution was 0.76 atoms/molecule of protein resulting in a specific activity of 29.5 kBq/mg for STUDY 8.
Studies 6 and 8: As described in STUDY 2 except that the radioiodinated TP10HD-CCW was added to ~1% w/w.
In Studies 6 and 8, test material was injected iv into a group of 5 Dutch rabbits (approximately 1 kg) at a dose of 1 mg/kg. Blood samples, 1 ml, were taken from an ear artery immediately predosing and at 5, 10, 20, 30, 60, 120 and 180 minutes, mixed with heparin, and radioactivity determined in an aliquot by scintillation counting after precipitation with trichloroacetic acid.
Plasma samples were analyzed for residual test material by an enzyme immunoassay (EIA) specific for TP10HD. Pharmacokinetic half-life was calculated from both the radiometric and immunoassay data.
Precipitation with trichloroacetic acid was performed as follows: Plasma (20 μl) was precipitated by sequential addition of 450μl of 0.13M Tris HCl, 4% SDS, 10% glycerol, pH 6.8 buffer, followed by 30 μl of fetal bovine serum and 500μl of 20% trichloroacetic acid. After each addition, the tubes were vigorously mixed and incubated for […] at 4° C.; the pellets of precipitable protein were collected by centrifugation at 1000×g for 10 minutes, the supernatants removed and discarded, and the residual radioactivity measured by scintillation counting.
A commercially available assay was utilized (Cellfree® CD35, T Cell Diagnostics, Inc. Cambridge, Mass.). In brief, polystyrene beads coated with polyclonal rabbit anti-TP10HD antibodies were simultaneously incubated with the diluted test sample and a horse radish peroxidase-conjugated polyclonal rabbit anti-TP10HD antibody. Following incubation, the beads were removed from the reaction mixture, washed of nonspecifically bound material, and subsequently incubated in the presence of an appropriate dilution of substrate. Color development was terminated by the addition of sulfuric acid and the absorbance (optical density) determined as a measure of TP10HD concentration.

| Substance | IH50 (concentration giving 50% inhibition of hemolysis) [2] | antihemolytic potency comparison, in words [2] | α phase half-life ([3]; 1 mg/kg) | β phase half-life ([3]; 1 mg/kg) | % dose cleared, α-phase ([5]; immunoassay data) | % dose cleared, β-phase ([5]; immunoassay data) | Serum half-life, α-phase ([5]; immunoassay data) | Serum half-life, β-phase ([5]; immunoassay data) | Total Clearance ([5]; immunoassay data) | % dose cleared, β-phase ([5]; radiometric data) | Peak (t = O) concentration ([5]; radiometric data) | Serum half-life, β-phase ([5]; radiometric data) | Total Clearance ([5]; radiometric data) | Volume of Distribution, α-phase ([5]; radiometric data) | Volume of Distribution, β-phase ([5]; radiometric data) | other results |
| --- | --- | --- | --- | --- | --- | --- | --- | --- | --- | --- | --- | --- | --- | --- | --- | --- |
| TP10HD-CC: TP10HD produced by cells cultured in a fluidized bed perfusion bioreactor and purified by combination chromatography | about 50±3 ng/ml | no basis for concluding that TP10HD-CC, TP10HD-CCW and TP10HD-CCS differ in their potency | 0.153 h | 3.018 h | – | – | – | – | – | – | – | – | – | – | – | pI of dominant isoforms ([1]; chromatofocusing): 5.1 and 4.8; pI of minor isoforms ([1]; chromatofocusing, smaller quantities / minor component): 5.7; proportion of preparation with pI <4.9 ([1]; peak integration): approximately 40%; potency relative to the strongly cationic glycoform (fold lower) ([2]; from IH50 of TP10HD-CX and TP10HD-CC): approximately 2 fold; α phase half-life ([3]; 3 mg/kg): 0.163 h; β phase half-life ([3]; 3 mg/kg): 4.452 h; % of given dose represented by α-phase [4]: 69%; % of given dose represented by β-phase [4]: 31%; Peak (t = O) concentration [4]: 29.3 µg/mL; Total Clearance [4]: 0.24 mL/min/kg; Volume of Distribution, α-phase [4]: 0.036 L/kg; Volume of Distribution, β-phase [4]: 0.073 L/kg; plasma level 24 hours after dosing ([4]; 24 hours): not distinguishable from control levels; Serum half-life, α-phase ([4]; mean of 8 animals): 8.3 min; Serum half-life, β-phase ([4]; mean of 8 animals): 6 h and 6.05 h; mean half-life, β-phase ([4]; two-compartment model): 6 h |
| TP10HD-CCS: the strongly cationic form of TP10HD-CC isolated by preparative HPLC cation exchange chromatography | ~27 ng/mL | no basis for concluding that TP10HD-CC, TP10HD-CCW and TP10HD-CCS differ in their potency | 0.111 h | 2.22 h | 73% | 27% | 0.167 h | 1.27 h | 1.24 mL/min/kg | 25.5 ± 1.5% and ~25% | 14.6 ± 1.0 µg/mL | 3.6 h and 3.608 ± 0.613 h | 0.85 ± 0.12 mL/min/kg and 0.85 mL/min/kg | 0.0698 ± 0.0048 L/kg | 162.0 ± 13.9 ml/kg and ~ 162 ml/kg | – |
| TP10HD-CCW: the weakly cationic form of TP10HD-CC isolated by preparative HPLC cation exchange chromatography | 44 ng/mL | no basis for concluding that TP10HD-CC, TP10HD-CCW and TP10HD-CCS differ in their potency | 0.2035 h | 1.67 h | 30% | 70% | 0.233 h | 6.27 h | 0.1 mL/min/kg | 69.1 ± 1.9% and ~70% | 17.8 ± 0.3 µg/mL | 3.6 h and 3.61 ± 0.313 h | 0.26 ± 0.02 mL/min/kg and 0.26 mL/min/kg | 0.0562 ± 0.001 L/kg | 22.6 ± 1.9 ml/kg and ~ 23 ml/kg | – |

From patent US5456909A, “Glycoform fractions of recombinant soluble complement receptor 1 (sCR1) having extended half-lives in vivo” (T Cell Sciences, Inc., priority 1992, dated 1995)
